Measured values from paper PMC12282080, “Molecular mechanism of potently neutralizing human monoclonal antibodies against severe fever with thrombocytopenia virus infection” (Journal of Virology, 2025).

Assays:
Conditions in all cases: both partners purified
[1] = biological target: SFTSV Gn glycoprotein (G19-K452, C3 genotype) (SFTSV (Dabie bandavirus), strain SDTA1, …, UniProt A0A1S6K8S9, strain); experiment: BLI
[2] = biological target: T1, SFTSV Gn head (positions 19-337), J1 genotype (KU18-5/Japan) (SFTSV (Dabie bandavirus), strain …, strain); experiment: SPR
T1 construct: source: HEK293F cells (Sino Biological), purified (HisTrap, size exclusion)

[3] = biological target: T2, SFTSV Gn head (positions 19-337), C2 genotype (P24-Vero_2021/China) (SFTSV (Dabie bandavirus), strain …, strain); experiment: SPR
T2 construct: source: HEK293F cells (Sino Biological), purified (HisTrap, size exclusion)

[4] = biological target: T3, SFTSV Gn head (positions 19-337), C3 genotype (SDTA1/China) (SFTSV (Dabie bandavirus), strain SDTA1, …, UniProt A0A1S6K8S9, strain); experiment: SPR
T3 construct: source: HEK293F cells (Sino Biological), purified (HisTrap, size exclusion)

[5] = biological target: T4, SFTSV Gn head (as crystallised with the Fabs) (SFTSV (Dabie bandavirus), strain SDTA1, …); experiment: crystal structure
T4 construct: also called Gn protein

Binder | Kd [2] | Kd [3] | Kd [4] | binding result [5] | also measured
SD4 monoclonal antibody (human IgG1) (antibody, V domains shown, also called mAb SD4) VH: QVQLVESGGGVVQPGRSLRLSCAASGFPFSGYGMHWVRQAPGKGLEWVAVISYDGSEKNYADSVKGRFTISRDNSKNTLYLQMNSLRVEDTAVYYCAKDRDYYGSGFYDYWGQGTLVTVSS VL: DIQMTQSPSSLSASVGDRVTITCQASQHISNHLNWYQQKPGTAPTLLIYEASNLETGVPSRFSGSGSGTDFSFTISSLRPEDFATYYCQQYDNFPLTFGPGTTMDIK | 0.0628 nM | 0.0321 nM | 0.0827 nM | – | Kd [1]: 0.096 nM
SD4-X monoclonal antibody (human IgG1) (antibody, V domains shown) VH: QVQLVESGGGVVQPGRSLRLSCAASGFTFSSYGMHWVRQAPGKGLEWVAVISYDGSNKYYADSVKGRFTISRDNSKNTLYLQMNSLRAEDTAVYYCAKDRDYYGSGFFDYWGQGTLVTVSS VL: DIQMTQSPSSLSASVGDRVTITCQASQDISNHLNWYQEKPGKVPKLLIYEASNVETGVPSRFSGSGSGTDFTFTISSLQPEDIATYYCQQYDNLPYTFGQGTKLEIK | – | – | – | – | binding result [1]: binds
SD4-S monoclonal antibody (human IgG1) (antibody, V domains shown) VH: QVQLVESGGGVLQPGRSLRLSCAASGFTFSGYGMHWVRQAPGKGLEWVAVISYDGSEKNYGDSVKGRFTISRDNSKNTLYLQINSLRTEDRAVYYCAKDRDYFGSGFFDYWGQGTLVTVSS VL: DIQMTQSPSSLSASVGDRVTITCQASQDITKYLNWYQQKPGKAPKLLIFEASNLETGVPSRFSGSGSGTDFTFTISSLQPEDFATYYCQQYGDFPLTFGGGTKVEIK | – | – | – | – | binding result [1]: binds
SD4 Fab (Fab, V domains shown, source: purified) VH: QVQLVESGGGVVQPGRSLRLSCAASGFPFSGYGMHWVRQAPGKGLEWVAVISYDGSEKNYADSVKGRFTISRDNSKNTLYLQMNSLRVEDTAVYYCAKDRDYYGSGFYDYWGQGTLVTVSS VL: DIQMTQSPSSLSASVGDRVTITCQASQHISNHLNWYQQKPGTAPTLLIYEASNLETGVPSRFSGSGSGTDFSFTISSLRPEDFATYYCQQYDNFPLTFGPGTTMDIK | – | – | – | binds | –
SD22 monoclonal antibody (human IgG1) (antibody, V domains shown, IgG1; germline IGHV3-30; also called mAb SD22) VH: QVQLVESGGGVVQPGRSLRLSCAASGFTFSGFGMHWVRQAPGKGLEWVALISYDGSDTYYSDSVKGRFTISRDNSKNTLYLQLKSLRPDDTAVYYCVGDRDYFGSGFFDHWGQGTLVTVSS VL: DIQMTQSPSSLSASIGDRVTITCRASRHITNHLNWYQHKPGRAPKLLIYEASNLQAGVPSRFSGSGSGTDFTFTISSLQPEDFATYYCQQYDNLPPAFGGGTKVDIK | 0.0557 nM | 0.0515 nM | 0.0542 nM | – | –
SD22 Fab (Fab, V domains shown, source: purified) VH: QVQLVESGGGVVQPGRSLRLSCAASGFTFSGFGMHWVRQAPGKGLEWVALISYDGSDTYYSDSVKGRFTISRDNSKNTLYLQLKSLRPDDTAVYYCVGDRDYFGSGFFDHWGQGTLVTVSS VL: DIQMTQSPSSLSASIGDRVTITCRASRHITNHLNWYQHKPGRAPKLLIYEASNLQAGVPSRFSGSGSGTDFTFTISSLQPEDFATYYCQQYDNLPPAFGGGTKVDIK | – | – | – | binds | –
SD12 monoclonal antibody (human IgG1) (antibody, V domains shown, IgG1; also called mAb SD12) VH: EVQLLESGGGLVQPGGSLRLSCAASGFIFSSYAMSWVRQAPGKGLEWVSAISGSGGSTYYADSVKGRFTISRDNSKNTLYLQMNSLRDEDTAVYYCAKDRSYVSSGFFDDWGQGTLVTVSS VL: DIQMTQSPSSLSASVGDRVTITCQASQDISNYLNWYQQRPGKAPKLLIFEASNLETGVPSRFSGSGSGTDFTFTISSLQPEDIATYYCQQYENLLYTFGQGTKLEIK | 60.2 nM | 74.1 nM | 87.8 nM | – | –
SD12 Fab (Fab, V domains shown, source: purified) VH: EVQLLESGGGLVQPGGSLRLSCAASGFIFSSYAMSWVRQAPGKGLEWVSAISGSGGSTYYADSVKGRFTISRDNSKNTLYLQMNSLRDEDTAVYYCAKDRSYVSSGFFDDWGQGTLVTVSS VL: DIQMTQSPSSLSASVGDRVTITCQASQDISNYLNWYQQRPGKAPKLLIFEASNLETGVPSRFSGSGSGTDFTFTISSLQPEDIATYYCQQYENLLYTFGQGTKLEIK | – | – | – | binds | –
